According to patent US20260167699A1 (Chugai, published 2026):
Positions count from the first letter of the chain named.

T1: FcγRIIa(R) extracellular domain with C-terminal His tag (human, UniProt P12318 34-217)
T1 construct: extracellular domain; R131 allotype; also called 2aR; CD32
T1 sequence: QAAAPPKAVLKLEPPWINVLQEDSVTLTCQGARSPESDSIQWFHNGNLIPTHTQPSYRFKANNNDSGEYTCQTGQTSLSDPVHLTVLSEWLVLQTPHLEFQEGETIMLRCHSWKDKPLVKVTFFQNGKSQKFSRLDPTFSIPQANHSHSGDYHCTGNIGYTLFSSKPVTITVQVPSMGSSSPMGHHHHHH

T2: FcγRIIa(H) extracellular domain with C-terminal His tag (human, UniProt P12318 34-217)
T2 construct: extracellular domain; H131 allotype; also called 2aH; CD32
T2 sequence: T1 sequence with R134H

T3: FcγRIIb extracellular domain with C-terminal His tag (human, UniProt P31994 43-217)
T3 construct: extracellular domain; also called 2b; CD32
T3 sequence: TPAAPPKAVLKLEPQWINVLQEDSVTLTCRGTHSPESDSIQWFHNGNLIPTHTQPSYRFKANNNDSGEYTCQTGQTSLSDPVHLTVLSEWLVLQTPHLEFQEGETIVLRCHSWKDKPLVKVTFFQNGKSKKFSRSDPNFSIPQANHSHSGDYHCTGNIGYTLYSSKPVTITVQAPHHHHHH

B1: GpH7-A5/GpH7-B3 variant I336_11K/GpL16-k0 (antibody, human IgG1, kappa)
heavy 1: not shown
heavy 2: not shown
light: DIVMTQSPLSLPVTPGEPASISCQASESLVHSNRNTYLHWYLQKPGQSPQLLIYKVSNRFSGVPDRFSGSGSGTDFTLKISRVEAEDVGVYYCSQNTHVPPTFGQGTKVEIERTVAAPSVFIFPPSDEQLKSGTASVVCLLNNFYPREAKVQWKVDNALQSGNSQESVTEQDSKDSTYSLSSTLTLSKADYEKHKVYACEVTHQGLSSPVTKSFNRGEC
notes: heterodimerized IgG1 (He Ab), mutation in one H chain only; also called He Ab
B2: GpH7-A5/GpH7-B3 variant K334_13S/GpL16-k0 (antibody, human IgG1, kappa)
heavy 1: not shown
heavy 2: not shown
light: B1 light
notes: as for B1
B3: GpH7-A5/GpH7-B3 variant K334_01G/GpL16-k0 (antibody, human IgG1, kappa)
heavy 1: not shown
heavy 2: not shown
light: B1 light
notes: as for B1
B4: GpH7-A5/GpH7-B3 variant P331_03V/GpL16-k0 (antibody, human IgG1, kappa)
heavy 1: not shown
heavy 2: not shown
light: B1 light
notes: as for B1
B5: GpH7-A5/GpH7-B3 variant K334_08L/GpL16-k0 (antibody, human IgG1, kappa)
heavy 1: not shown
heavy 2: not shown
light: B1 light
notes: as for B1
B6: GpH7-A5/GpH7-B3 variant K334_16H/GpL16-k0 (antibody, human IgG1, kappa)
heavy 1: not shown
heavy 2: not shown
light: B1 light
notes: as for B1
B7: GpH7-A5/GpH7-B3 variant K334_18N/GpL16-k0 (antibody, human IgG1, kappa)
heavy 1: not shown
heavy 2: not shown
light: B1 light
notes: as for B1
B8: GpH7-A5/GpH7-B3 variant I336_19Q/GpL16-k0 (antibody, human IgG1, kappa)
heavy 1: not shown
heavy 2: not shown
light: B1 light
notes: as for B1
B9: GpH7-A5/GpH7-B3 variant I336_12R/GpL16-k0 (antibody, human IgG1, kappa)
heavy 1: not shown
heavy 2: not shown
light: B1 light
notes: as for B1
B10: GpH7-A5/GpH7-B3 variant K334_10E/GpL16-k0 (antibody, human IgG1, kappa)
heavy 1: not shown
heavy 2: not shown
light: B1 light
notes: as for B1
B11: GpH7-A5/GpH7-B3 variant I336_13S/GpL16-k0 (antibody, human IgG1, kappa)
heavy 1: not shown
heavy 2: not shown
light: B1 light
notes: as for B1
B12: GpH7-A5/GpH7-B3 variant I336_16H/GpL16-k0 (antibody, human IgG1, kappa)
heavy 1: not shown
heavy 2: not shown
light: B1 light
notes: as for B1
B13: GpH7-A5/GpH7-B3 variant P331_02A/GpL16-k0 (antibody, human IgG1, kappa)
heavy 1: not shown
heavy 2: not shown
light: B1 light
notes: as for B1
B14: GpH7-A5/GpH7-B3 variant I336_18N/GpL16-k0 (antibody, human IgG1, kappa)
heavy 1: not shown
heavy 2: not shown
light: B1 light
notes: as for B1
B15: GpH7-A5/GpH7-B3 variant K334_15Y/GpL16-k0 (antibody, human IgG1, kappa)
heavy 1: not shown
heavy 2: not shown
light: B1 light
notes: as for B1
B16: GpH7-A5/GpH7-B3 variant I336_14T/GpL16-k0 (antibody, human IgG1, kappa)
heavy 1: not shown
heavy 2: not shown
light: B1 light
notes: as for B1
B17: GpH7-A5/GpH7-B3 variant P331_04F/GpL16-k0 (antibody, human IgG1, kappa)
heavy 1: not shown
heavy 2: not shown
light: B1 light
notes: as for B1
B18: GpH7-A5/GpH7-B3 variant K334_03V/GpL16-k0 (antibody, human IgG1, kappa)
heavy 1: not shown
heavy 2: not shown
light: B1 light
notes: as for B1
B19: GpH7-A5/GpH7-B3 variant K334_05P/GpL16-k0 (antibody, human IgG1, kappa)
heavy 1: not shown
heavy 2: not shown
light: B1 light
notes: as for B1
B20: GpH7-A5/GpH7-B3 variant K334_09D/GpL16-k0 (antibody, human IgG1, kappa)
heavy 1: not shown
heavy 2: not shown
light: B1 light
notes: as for B1
B21: GpH7-A5/GpH7-B3 variant I336_15Y/GpL16-k0 (antibody, human IgG1, kappa)
heavy 1: not shown
heavy 2: not shown
light: B1 light
notes: as for B1
B22: GpH7-A5/GpH7-B3 variant K334_19Q/GpL16-k0 (antibody, human IgG1, kappa)
heavy 1: not shown
heavy 2: not shown
light: B1 light
notes: as for B1
B23: GpH7-A5/GpH7-B3 variant K334_06M/GpL16-k0 (antibody, human IgG1, kappa)
heavy 1: not shown
heavy 2: not shown
light: B1 light
notes: as for B1
B24: GpH7-A5/GpH7-B3 variant K334_02A/GpL16-k0 (antibody, human IgG1, kappa)
heavy 1: not shown
heavy 2: not shown
light: B1 light
notes: as for B1
B25: GpH7-A5/GpH7-B3 variant P331_06M/GpL16-k0 (antibody, human IgG1, kappa)
heavy 1: not shown
heavy 2: not shown
light: B1 light
notes: as for B1
B26: GpH7-A5/GpH7-B3 variant K334_14T/GpL16-k0 (antibody, human IgG1, kappa)
heavy 1: not shown
heavy 2: not shown
light: B1 light
notes: as for B1
B27: GpH7-A5/GpH7-B3 variant K334_12R/GpL16-k0 (antibody, human IgG1, kappa)
heavy 1: not shown
heavy 2: not shown
light: B1 light
notes: as for B1
B28: GpH7-A5/GpH7-B3 variant K334_20W/GpL16-k0 (antibody, human IgG1, kappa)
heavy 1: not shown
heavy 2: not shown
light: B1 light
notes: as for B1
B29: GpH7-A5/GpH7-B3 variant K334_07I/GpL16-k0 (antibody, human IgG1, kappa)
heavy 1: not shown
heavy 2: not shown
light: B1 light
notes: as for B1
B30: GpH7-A5/GpH7-B3 variant K334_04F/GpL16-k0 (antibody, human IgG1, kappa)
heavy 1: not shown
heavy 2: not shown
light: B1 light
notes: as for B1

These binders were tested against T4, FcγRIa extracellular domain with C-terminal His tag (human, UniProt P12314 16-292) (assay: SPR; % of GpH7-A5/GpH7-B3/GpL16-k0).
T4 construct: extracellular domain; also called 1a; CD64
T4 sequence (P12314 other isoform, or with tags, fused parts or gaps): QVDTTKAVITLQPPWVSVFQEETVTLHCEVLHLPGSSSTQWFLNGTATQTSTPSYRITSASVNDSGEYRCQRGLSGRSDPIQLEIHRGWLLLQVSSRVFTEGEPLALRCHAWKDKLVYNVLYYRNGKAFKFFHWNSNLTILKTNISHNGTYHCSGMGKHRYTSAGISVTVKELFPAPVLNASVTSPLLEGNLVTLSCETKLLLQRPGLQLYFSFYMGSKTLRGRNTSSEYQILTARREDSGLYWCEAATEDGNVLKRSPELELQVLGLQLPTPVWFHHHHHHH

| Binder | He/Con 1a [%] |
| --- | --- |
| B1 | 109 |
| B2 | 99.3 |
| B3 | 98 |
| B4 | 104 |
| B5 | 99.1 |
| B6 | 99.3 |
| B7 | 99 |
| B8 | 107 |
| B9 | 105 |
| B10 | 104 |
| B11 | 106 |
| B12 | 104 |
| B13 | 105 |
| B14 | 111 |
| B15 | 99.1 |
| B16 | 108 |
| B17 | 108 |
| B18 | 99.1 |
| B19 | 98.7 |
| B20 | 101 |
| B21 | 106 |
| B22 | 100 |
| B23 | 99 |
| B24 | 100 |
| B25 | 106 |
| B26 | 99.2 |
| B27 | 98.2 |
| B28 | 99.9 |
| B29 | 98.7 |
| B30 | 99.6 |

These binders were tested against T1, FcγRIIa(R) extracellular domain with … (assay: SPR; % of GpH7-A5/GpH7-B3/GpL16-k0).

| Binder | He/Con 2aR [%] |
| --- | --- |
| B1 | 104 |
| B2 | 149 |
| B3 | 127 |
| B4 | 114 |
| B5 | 145 |
| B6 | 149 |
| B7 | 152 |
| B8 | 70.9 |
| B9 | 104 |
| B10 | 144 |
| B11 | 97.4 |
| B12 | 99.1 |
| B13 | 105 |
| B14 | 110 |
| B15 | 148 |
| B16 | 102 |
| B17 | 110 |
| B18 | 160 |
| B19 | 141 |
| B20 | 127 |
| B21 | 83.1 |
| B22 | 149 |
| B23 | 144 |
| B24 | 143 |
| B25 | 105 |
| B26 | 153 |
| B27 | 151 |
| B28 | 143 |
| B29 | 155 |
| B30 | 150 |

What follows are binders tested against T2, FcγRIIa(H) extracellular domain with … (assay: SPR; % of GpH7-A5/GpH7-B3/GpL16-k0).

| Binder | He/Con 2aH [%] |
| --- | --- |
| B1 | 103 |
| B2 | 116 |
| B3 | 92.5 |
| B4 | 85.4 |
| B5 | 120 |
| B6 | 119 |
| B7 | 114 |
| B8 | 76.4 |
| B9 | 104 |
| B10 | 113 |
| B11 | 101 |
| B12 | 97.4 |
| B13 | 93.9 |
| B14 | 107 |
| B15 | 122 |
| B16 | 103 |
| B17 | 87.7 |
| B18 | 126 |
| B19 | 112 |
| B20 | 95.6 |
| B21 | 84.6 |
| B22 | 116 |
| B23 | 121 |
| B24 | 111 |
| B25 | 88.1 |
| B26 | 118 |
| B27 | 114 |
| B28 | 112 |
| B29 | 126 |
| B30 | 121 |

These binders were tested against T3, FcγRIIb extracellular domain with … (assay: SPR; % of GpH7-A5/GpH7-B3/GpL16-k0).

| Binder | He/Con 2b [%] |
| --- | --- |
| B1 | 98.7 |
| B2 | 143 |
| B3 | 119 |
| B4 | 132 |
| B5 | 137 |
| B6 | 146 |
| B7 | 148 |
| B8 | 63.6 |
| B9 | 101 |
| B10 | 148 |
| B11 | 91.5 |
| B12 | 93.8 |
| B13 | 110 |
| B14 | 107 |
| B15 | 141 |
| B16 | 97.8 |
| B17 | 122 |
| B18 | 161 |
| B19 | 136 |
| B20 | 122 |
| B21 | 74.5 |
| B22 | 141 |
| B23 | 141 |
| B24 | 139 |
| B25 | 113 |
| B26 | 149 |
| B27 | 144 |
| B28 | 134 |
| B29 | 154 |
| B30 | 143 |

Each binder was assayed against T5, FcγRIIIa extracellular domain with C-terminal His tag (human, UniProt P08637 17-208) (assay: SPR; % of GpH7-A5/GpH7-B3/GpL16-k0).
T5 construct: extracellular domain; also called 3a; CD16
T5 sequence (P08637 other isoform, or with tags, fused parts or gaps): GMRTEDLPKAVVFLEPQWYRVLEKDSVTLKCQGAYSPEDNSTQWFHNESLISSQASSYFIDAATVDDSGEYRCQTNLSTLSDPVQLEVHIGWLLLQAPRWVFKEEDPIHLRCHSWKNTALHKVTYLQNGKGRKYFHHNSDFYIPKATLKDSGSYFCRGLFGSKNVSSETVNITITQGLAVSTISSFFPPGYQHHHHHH

| Binder | He/Con 3a [%] |
| --- | --- |
| B1 | 94.4 |
| B2 | 150 |
| B3 | 125 |
| B4 | 66.9 |
| B5 | 148 |
| B6 | 138 |
| B7 | 140 |
| B8 | 88.4 |
| B9 | 88.8 |
| B10 | 186 |
| B11 | 97.1 |
| B12 | 92.8 |
| B13 | 82.5 |
| B14 | 99.4 |
| B15 | 145 |
| B16 | 103 |
| B17 | 70.7 |
| B18 | 154 |
| B19 | 138 |
| B20 | 164 |
| B21 | 83.4 |
| B22 | 140 |
| B23 | 149 |
| B24 | 152 |
| B25 | 68.4 |
| B26 | 146 |
| B27 | 93.5 |
| B28 | 132 |
| B29 | 156 |
| B30 | 152 |
